Measurements taken from US20080292704A1 (published 2008).

B1: recombinant FcγRIIb ligand binding domain, 6xHis tagged (receptor)
chain: TPAAPPKAVLKLEPQWINVLQEDSVTLTCRGTHSPESDSIQWFHNGNLIPTHTQPSYRFKANNNDSGEYTCQTGQTSLSDPVHLTVLSEWLVLQTPHLEFQEGETIVLRCHSWKDKPLVKVTFFQNGKSKKFSRSDPNFSIPQANHSHSGDYHCTGNIGYTLYSSKPVTITVQAP
B2: recombinant FcγRIIa ligand binding domain, 6xHis tagged (receptor)
chain: QAAAPPKAVLKLEPPWINVLQEDSVTLTCQGARSPESDSIQWFHNGNLIPTHTQPSYRFKANNNDSGEYTCQTGQTSLSDPVHLTVLSEWLVLQTPHLEFQEGETIMLRCHSWKDKPLVKVTFFQNGKSQKFSHLDPTFSIPQANHSHSGDYHCTGNIGYTLFSSKPVTITVQVPSMGSSSPMG
B3: recombinant FcγRI ligand binding domain, 6xHis tagged (receptor)
chain: QVDTTKAVITLQPPWVSVFQEETVTLHCEVLHLPGSSSTQWFLNGTATQTSTPSYRITSASVNDSGEYRCQRGLSGRSDPIQLEIHRGWLLLQVSSRVFTEGEPLALRCHAWKDKLVYNVLYYRNGKAFKFFHWNSNLTILKTNISHNGTYHCSGMGKHRYTSAGISVTVKELFPAPVLNASVTSPLLEGNLVTLSCETKLLLQRPGLQLYFSFYMGSKTLRGRNTSSEYQILTARREDSGLYWCEAATEDGNVLKRSPELELQVLGLQLPTPVWFH

Assays:
HSA1Fc = target: T1, HSA1Fc (human, UniProt P02768 25-221); test: ELISA on coated recombinant receptor, Protein G-HRPO detection
T1 construct: range 1-197; also called Fc fusion protein; Ig fusion protein
T1 sequence (P02768 other isoform, or with tags, fused parts or gaps): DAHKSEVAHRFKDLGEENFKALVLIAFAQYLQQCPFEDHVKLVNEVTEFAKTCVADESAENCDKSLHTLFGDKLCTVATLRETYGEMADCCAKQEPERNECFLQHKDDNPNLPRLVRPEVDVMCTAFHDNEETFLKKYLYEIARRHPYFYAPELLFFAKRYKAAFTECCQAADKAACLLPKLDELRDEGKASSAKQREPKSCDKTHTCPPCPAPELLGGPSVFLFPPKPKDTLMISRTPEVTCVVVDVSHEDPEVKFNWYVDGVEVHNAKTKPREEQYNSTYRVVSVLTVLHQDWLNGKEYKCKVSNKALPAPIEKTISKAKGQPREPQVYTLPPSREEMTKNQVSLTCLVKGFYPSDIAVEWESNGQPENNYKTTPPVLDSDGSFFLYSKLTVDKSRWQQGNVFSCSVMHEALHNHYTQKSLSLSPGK

HSA1R4 [1] = target: T2, HSA1R4 (human, UniProt P02768 25-221); test: ELISA on coated recombinant receptor (4 µg/mL), HRPO-Protein G detection
T2 construct: range 1-197; also called R4 ligand; HCH2 polymer
T2 sequence (P02768 other isoform, or with tags, fused parts or gaps): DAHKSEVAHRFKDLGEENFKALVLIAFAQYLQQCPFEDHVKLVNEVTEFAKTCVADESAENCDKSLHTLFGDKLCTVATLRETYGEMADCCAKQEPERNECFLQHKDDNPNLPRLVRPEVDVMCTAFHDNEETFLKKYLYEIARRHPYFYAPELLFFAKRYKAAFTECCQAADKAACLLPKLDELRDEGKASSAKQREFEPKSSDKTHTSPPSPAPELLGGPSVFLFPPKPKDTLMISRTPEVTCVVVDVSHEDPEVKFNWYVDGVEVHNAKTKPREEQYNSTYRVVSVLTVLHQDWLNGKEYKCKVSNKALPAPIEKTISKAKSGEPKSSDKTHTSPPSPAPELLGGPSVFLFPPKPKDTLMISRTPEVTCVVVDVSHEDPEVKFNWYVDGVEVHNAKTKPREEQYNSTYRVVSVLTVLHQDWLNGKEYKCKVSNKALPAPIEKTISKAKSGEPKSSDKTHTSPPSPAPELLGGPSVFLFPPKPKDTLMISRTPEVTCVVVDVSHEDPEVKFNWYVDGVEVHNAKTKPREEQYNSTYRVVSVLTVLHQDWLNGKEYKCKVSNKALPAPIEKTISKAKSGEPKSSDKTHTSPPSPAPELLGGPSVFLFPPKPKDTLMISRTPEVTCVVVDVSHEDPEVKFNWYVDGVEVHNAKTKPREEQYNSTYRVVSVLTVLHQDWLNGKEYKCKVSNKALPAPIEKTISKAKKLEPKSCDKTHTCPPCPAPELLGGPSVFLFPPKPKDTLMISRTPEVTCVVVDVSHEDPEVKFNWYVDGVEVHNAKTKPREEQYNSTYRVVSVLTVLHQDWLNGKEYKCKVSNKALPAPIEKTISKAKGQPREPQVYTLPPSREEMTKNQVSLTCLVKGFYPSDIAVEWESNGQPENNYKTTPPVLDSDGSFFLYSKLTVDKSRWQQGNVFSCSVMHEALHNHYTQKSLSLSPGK

HSA1R4 [2] = target: T2, HSA1R4; test: ELISA on coated recombinant receptor (2 µg/mL), HRPO-Protein G detection

Row | Binder | binding result (HSA1Fc) | binding result (HSA1R4 [1]) | binding result (HSA1R4 [2])
1 | B1 | no binding (tested: 20 ug/mL (highest concentration tested)) | binds | –
2 | B2 | no binding (tested: 20 ug/mL (highest concentration tested)) | – | –
3 | B3 | binds | – | binds
